For 37 sequences, protein stability index results are on record in the supplement of paper PMC10724198.

± gives the standard deviation of the averaged measurements.

The test system of series [1] is Saccharomyces cerevisiae. Briefly: protein stability index of tFT-peptide fusion in wild type (PSI (0-1 scale)); higher = more stable (slower turnover). As to conditions: genetic background: wild type. On the procedure: (§1)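 MPS profiling in S. cerevisiae of two library types built from selected 12-aa C-degron peptides (IN1, IN2, LN1, LN3, VN2, R1-R5, W1-W3, Atg1 and Rpa12 C-termini): saturation mutagenesis libraries and C-terminal +1 capping libraries (13 aa). Each peptide is fused to the C-terminus of a sfGFP-mCherry timer, after a GGGS linker. Cells are FACS-sorted into 8 mCherry/sfGFP bins and sequenced. PSI runs from 0 (unstable) to 1 (stable), measured once in wild type and in the das1Δ or doa10Δ background.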

Series [2] concerns Saccharomyces cerevisiae. Briefly: protein stability index of tFT-peptide fusion in deletion strain of DAS1 (PSI (0-1 scale)); higher = more stable (slower turnover). On the procedure:
as §1

For series [3], the system named is Saccharomyces cerevisiae. Briefly: protein stability index of tFT-peptide fusion (C-terminal peptide) (PSI (0-1 scale)); higher = more stable (slower turnover). The conditions noted are these: temperature: 30 C. On the procedure:
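MPS profiling in S. cerevisiae of the yeast C-terminome library: the last 12 aa of each annotated ORF are fused to the C-terminus of a sfGFP-mCherry timer, after a GGGS linker. Cells are FACS-sorted into 8 mCherry/sfGFP bins and deep-sequenced. PSI runs from 0 (unstable) to 1 (stable); wild type and das1Δ backgrounds, two technical replicates each.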

The mark [4] stands for this setting: genetic background: das1 deletion.
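Throughout, for protein stability index of tFT-peptide fusion in deletion strain of DAS1: PSI is a weighted mean of each variant's read distribution over the sorted stability bins, computed only for variants having over 10 reads in total.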
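Throughout, for protein stability index of tFT-peptide fusion in wild type: PSI derived as read-weighted mean over the 8 sorting bins, only variants exceeding 10 total reads kept, mCherry placed adjacent to the peptide and sfGFP distal.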

As for ETSCGYKFRTNN, the protein stability index in the series on Saccharomyces cerevisiae [1] amounted to 0.266; with Saccharomyces cerevisiae [2], 0.672.
For FDMRWTFRYWVN, the protein stability index was found to be 0.089 with Saccharomyces cerevisiae [1] and 0.557 with Saccharomyces cerevisiae [2].
Consider FEMRWTFRYWVN, for which the protein stability index worked out at 0.0443 with Saccharomyces cerevisiae [1] and 0.437 in the series with Saccharomyces cerevisiae [2].
Regarding FFMRWTFRYWVN, the protein stability index in the series with Saccharomyces cerevisiae [1] is 0.0417; in the series with Saccharomyces cerevisiae [2], 0.371.
For FSERWTFRYWVN, the results for the protein stability index in the series on Saccharomyces cerevisiae [1] and with Saccharomyces cerevisiae [2] were 0.122 and 0.604, respectively.
Turning to FSMCWTFRYWVN, the protein stability index in the series with Saccharomyces cerevisiae [1] is 0.0491; in the series with Saccharomyces cerevisiae [2], 0.412.
As for WARRSFSSYDLC [GID11 C-terminal 12 aa], the values for the protein stability index with Saccharomyces cerevisiae [3] (setting [4]) and with Saccharomyces cerevisiae [3] (genetic background: wild type) were 0.7053 ± 0.0036 and 0.694 ± 0.011, respectively.
On to WDLEQIMSQHGF [PCL1 C-terminal 12 aa], for which the protein stability index was determined as 0.7397 ± 0.007 in the series with Saccharomyces cerevisiae [3] (setting [4]) and 0.735 ± 0.0046 in the series with Saccharomyces cerevisiae [3] (genetic background: wild type).
The matching figures for WLTTKMSSSEAS [UIP4 C-terminal 12 aa]: 0.708 ± 0.014 and 0.741 ± 0.025.
In the same order, the values of WNCFLSMRNASK [YOR292C C-terminal 12 aa] are 0.693 ± 0.012 and 0.72 ± 0.028.
As to “WRFLGIVKSPNT [YDR510C-A C-terminal 12 aa]”, the figures for the protein stability index with Saccharomyces cerevisiae [3] (setting [4]) and with Saccharomyces cerevisiae [3] (genetic background: wild type) were 0.6815 ± 0.0017 and 0.693 ± 0.013, respectively.
In the case of WRQEYPGVDEFF [PRM8 C-terminal 12 aa], the protein stability index came to 0.742 ± 0.0099 in the series with Saccharomyces cerevisiae [3] (setting [4]) and 0.748 ± 0.045 with Saccharomyces cerevisiae [3] (genetic background: wild type).
In the same order, the values of YAGIPENKIIGV [ARG56 C-terminal 12 aa] are 0.703 ± 0.048 and 0.702 ± 0.021.
Turning to YCLAGVLCVFCV [YPR064W C-terminal 12 aa], the values for the protein stability index in the series on Saccharomyces cerevisiae [3] (setting [4]) and in the series on Saccharomyces cerevisiae [3] (genetic background: wild type) were 0.431 ± 0.013 and 0.433 ± 0.0085, respectively.
For YDKESDDRKCCL [CTR3 C-terminal 12 aa], the protein stability index in the series on Saccharomyces cerevisiae [3] (setting [4]) is 0.681 ± 0.0083; with Saccharomyces cerevisiae [3] (genetic background: wild type) it was 0.675 ± 0.034.
In the same order, the values of YGISSSVLKGST [PHO87 C-terminal 12 aa] are 0.7153 ± 0.0032 and 0.676 ± 0.009.
In the case of YGLNIGRPDFYR [TAF10 C-terminal 12 aa], the values for the protein stability index with Saccharomyces cerevisiae [3] (setting [4]) and in the series with Saccharomyces cerevisiae [3] (genetic background: wild type) were 0.725 ± 0.016 and 0.7099 ± 0.0023, respectively.
With YHAVDSTMSPKN [OST4 C-terminal 12 aa], the protein stability index with Saccharomyces cerevisiae [3] (setting [4]) came out at 0.693 ± 0.019; with Saccharomyces cerevisiae [3] (genetic background: wild type) it was 0.719 ± 0.047.
The matching figures for YHKLVDEVFQHL [MPA43 C-terminal 12 aa]: 0.71092 ± 0.00027 and 0.688 ± 0.016.
In the same order, the values of YIDDIDQTIPKY [UBA4 C-terminal 12 aa] are 0.7441 ± 0.0062 and 0.686 ± 0.0073.
YILFFLFQLSIM [PEX35 C-terminal 12 aa]: the protein stability index in the series with Saccharomyces cerevisiae [3] (setting [4]) came out at 0.342 ± 0.02; in the series on Saccharomyces cerevisiae [3] (genetic background: wild type), 0.369 ± 0.015.
Regarding YKDDEDDDIEMT [PDS5 C-terminal 12 aa], the protein stability index in the series with Saccharomyces cerevisiae [3] (setting [4]) was 0.679 ± 0.011; in the series with Saccharomyces cerevisiae [3] (genetic background: wild type) it was 0.685 ± 0.051.
Consider YLGAKTGSLIDF [KAR5 C-terminal 12 aa], for which the protein stability index turned out to be 0.702 ± 0.015 with Saccharomyces cerevisiae [3] (setting [4]) and 0.721 ± 0.026 in the series with Saccharomyces cerevisiae [3] (genetic background: wild type).
Turning to YLIAVTNLVERE [PPT2 C-terminal 12 aa], the protein stability index with Saccharomyces cerevisiae [3] (setting [4]) is 0.682 ± 0.045; in the series with Saccharomyces cerevisiae [3] (genetic background: wild type), 0.723 ± 0.086.
The matching figures for YLKLRGANFVLK [IES6 C-terminal 12 aa]: 0.695 ± 0.013 and 0.684 ± 0.011.
Regarding “YLKRCCYHPMQN [YIL020C-A C-terminal 12 aa]”, the protein stability index in the series on Saccharomyces cerevisiae [3] (setting [4]) was 0.72572 ± 0.00065; in the series on Saccharomyces cerevisiae [3] (genetic background: wild type), 0.679 ± 0.035.
Turning to YLRRFFEVTSLV [EMP24 C-terminal 12 aa], the figures for the protein stability index in the series on Saccharomyces cerevisiae [3] (setting [4]) and in the series on Saccharomyces cerevisiae [3] (genetic background: wild type) were 0.552 ± 0.011 and 0.338 ± 0.03, respectively.
The matching figures for YLYVFLQQARLE [YBR032W C-terminal 12 aa]: 0.51 ± 0.029 and 0.473 ± 0.018.
The matching figures for YMIRFIANGYYY [SWR1 C-terminal 12 aa]: 0.613 ± 0.014 and 0.614 ± 0.009.
Turning to YMKHLLECRSLW [PCD1 C-terminal 12 aa], the protein stability index in the series on Saccharomyces cerevisiae [3] (setting [4]) is 0.733 ± 0.019; in the series with Saccharomyces cerevisiae [3] (genetic background: wild type), 0.6945 ± 0.00077.
The matching figures for YNINDLYKSLTR [MAK32 C-terminal 12 aa]: 0.7059 ± 0.0029 and 0.711 ± 0.023.
In the same order, the values of YPVGQVDRDVCC [TAD3 C-terminal 12 aa] are 0.6955 ± 0.0022 and 0.685 ± 0.037.
For YQGVIYGIDGDQ [POP2 C-terminal 12 aa], the protein stability index came to 0.699 ± 0.012 in the series on Saccharomyces cerevisiae [3] (setting [4]) and 0.689 ± 0.041 in the series on Saccharomyces cerevisiae [3] (genetic background: wild type).
As for “YSISISLHTPCV [YHR049C-A C-terminal 12 aa]”, the protein stability index turned out to be 0.66 ± 0.013 with Saccharomyces cerevisiae [3] (setting [4]) and 0.632 ± 0.02 with Saccharomyces cerevisiae [3] (genetic background: wild type).
On to YTDLASIASGRD [SHS1 C-terminal 12 aa], for which the protein stability index in the series with Saccharomyces cerevisiae [3] (setting [4]) was 0.691 ± 0.016; in the series on Saccharomyces cerevisiae [3] (genetic background: wild type), 0.714 ± 0.092.
As for YTVLEDDANDEK [HAP1 C-terminal 12 aa], the protein stability index is 0.673 ± 0.017 with Saccharomyces cerevisiae [3] (setting [4]) and 0.7 ± 0.027 with Saccharomyces cerevisiae [3] (genetic background: wild type).
For the sequence YVFVFIIDFIIR [FUN26 C-terminal 12 aa], the protein stability index with Saccharomyces cerevisiae [3] (setting [4]) stood at 0.213 ± 0.006; in the series on Saccharomyces cerevisiae [3] (genetic background: wild type), 0.245 ± 0.0059.
